This is an account of results in the DeepSol protein solubility set.

The series is described as follows: soluble on expression in E. coli; label from the status in PepcDB or PDB records.
With “MNKFNEEYRKMEEDAQRRHQELNRQSLENAAEMKDSRRKILNKEFEGAILIKQVEHETKQVEKKRENLEKGHKKEMRNMSADFRKKKNEIEMEQLKLAIGNRVENHNQRKVEEQLRNEQERFLKKLLKYHTTTGANRDLFGEFQKVLKPFNEMIGELQDIKLRCITDGDADNGYIEYEVDYVGQLRRSVYTEIDEFREYIADEKNISKEIGIACAIYVKKLERIADCKELNLLCDQLQAAIEGKNGEIIKTCEIFIDKFTQKFESISNGSTSDFHRLRLKAPERDIPSSSTLTIEN”, the “soluble on expression in E. coli” value was “not soluble”.
With “MTNQQDYTQDNDKLYRYLFQHRAVRGEWVRLNKTFTDTLNTHQYPKAVQDLLGEMMVATNLLTATLKFAGNITVQIQGDGPLRLALVNGNDQQQIRALARVDGNITENMSLHNMIGKGVLVITIAPKEGERYQGVISLDKPTITECLEDYFVRSEQLQTQLIIRTGEYEGKPVAAGMLLQIMPDGSGTPEDFEHLTTLAATVKDEELFGLPAEELLYRLYHEETVNLYPAQDVQFFCGCSAERSSSALLLISDEEIDEILAEHKGRIDMQCECCGTHYFFNKEAIEKLKSTRV” the entry was “not soluble”; with “MEMEHINENTIRVLIGNEDLADRGITFLDLLGNHKDVENFFYSILEEVDVEDEFQGSEAVTFQVLPKNDGLELFISKNVAMDDLSSLEGLSEVNADVSELIRKQIEADKAAADELDEMEATDETNRNVIFELDNFEAMIQLSKEVFMQSVLTNLYTYNDRYYLQVLFLTDELEKTNVDNEIAQILEFAHKTTVTQDTLVEYGTCIMERSALELTRYYFND”, “not soluble”; with “MSLTKTVLILTAAIDLDGGDWFSPCWERVTRSMALGKAGDIIHGCVPGAALAIREEKPIAAGRSAQNRRGSFREQEDGSYVLLAGRIFNRTDLLRRFDLKQGMDDADLYAAVSARMGEAAYRAIVGDYAALQWFPQRRSLRLARSGTSNMPLHVWRDGSRIVISSLPGPILASGVPARINDDRVADELLLFSPDGRTSFYAGMHRVPGGGEEVHDPSGFKARRLWSVKDAPEIRLRRDEDYVEALDVLFDEAVSATMDGSSAPGILLSGGFDSQTVASYAVKRLPAGRRLQAFTSVPMQGWTPPPRPGIFGDESAHVRALCAMYPQIEPHFIEAADFRYGERGHRQFLVGGWPVFNEMNAHWSHASLEQAADLGCDLMLTGDLGNSGFSYDGLTGYPTWLREGQWFRLLREIGKSDDPRPFWRKLISLAVMPHVPVRWKRKMDRHRPWRPSAFATWCGMREDFARESGVLDRAEAGGHDIDFYDIPSARTWRANVVDSLNDGAPEIYLGYQLLYGVPMRDPTAYLPLLEFCAGIPDEQYLRDGQTRWLARRLMQGRVPEMVRLENRIGAQSSDWPQRFARDREDLIAEMERMKADERLAKIFDFERLAANLREWDGSDRPESRSNFKINAAVGRAMVSARFVSHVEGRNVGEGHHHHHH”, “soluble”.
For “MSLTEFWNSFSNLFTGGRSTNRKIILVLLIMVLSSGVCSADNYVGGIPLTSAHSGTVSGGVYCDSYYGMGDQEAKASNTIEKTFTVPDNANVEWAMLLTNVYCGHMQNNYQGKAKVDFNGKNLGTETLNVPYTYSYNGGNGHVQVNDHVNRVTSDYMMYYDVTGLVKAGKNTAVVKTDPLDSSFDGRIRLVTLVVAYNDGSKKTIWYQVNRGHDADSYYSDDEMNENYIGSTAFQAALPEGSSLTDSKLTLVYQASSDGAYAFNGNALSSGTPQGTFSGSNTWDVKDSLKSSGTNTLTYDRTASFYKSVLGILTAEYTTSSSGDSTDDTPADNEGHHHHHH”, the “soluble on expression in E. coli” value is “soluble”.
With “MHHHHHHSSGRENLYFQGPKCIQCGQYLDDPDLKYGQHPPDAVDEPQMLTNEKLSIFDANESGFESYEALPQHKLTCFSVYCKHGHLCPIDTGLIEKNIELFFSGSAKPIYDDDPSLEGGVNGKNLGPINEWWITGFDGGEKALIGFSTSFAEYILMDPSPEYAPIFGLMQEKIYISKIVVEFLQSNSDSTYEDLINKIETTVPPSGLNLNRFTEDSLLRHAQFVVEQVESYDEAGDSDEQPIFLTPCMRDLIKLAGVTLGQRRAQAR” the entry was “soluble”; with “MGSDKIHHHHHHMQRHLVDEFWCINVDSTAWSKVLHRGTRREFKKGEQIVSAGELVTQLRYLESGSVCMKRTTLDGNEKILMHIERSSLFCEVPFFTGDEIHSSFNCHRDAVVYCFSKEVVDDILEMYPCIAKDIIRTLSMKVSVLSNQIASLGLDTLEQRIAKFILLRYNLMNLADADLMTLGTLRMKDVASILGVHRATLYRALKTMEKMRLIKLLNENRLQVLNIEALAALANH”, “not soluble”.
In the case of “MGSDKIHHHHHHMLQTTNKPPLTIRLCQPRGFCAGVDRAIQIVVLALKKYGAPVYVRHEIVHNRYVVEGLQSLGAVFIEELSEIPAEHRRSPVVFSAHGVPKSVPADAQARNLFYLDATCPLVSKVHKQAMRHQRLGRHVLLIGHAGHPEVIGTMGQLPEGAVTLVETEADAARLVPADPKALGFVTQTTLSVEDTAGIIRALRERFPDLQAPAAESICYATTNRQEAVKDTAPGADLYLIVGAPNSSNSRRLVEVAERAGATMSLLVQRAAEIPWNDIGTISTLGLSAGASAPEIIVDEIIDAFRQRFDVTIDLAITATETEDFPVMRVLRDVELTPADMAFVNGAA” it was “not soluble”.
Take “MGHHHHHHSHMQVTITLTSPIIREENMREGDVTSGMVKDPPDVLDRQKCLDALAALRHAKWFQARANGLQSCVIIIRILRDLCQRVPTWSDFPSWAMELLVEKAISSASSPQSPGDALRRVFECISSGIILKGSPGLLDPCEKDPFDTLATMTDQQREDITSSAQFALRLLAFRQIHKVLGMDPLPQMSQRFNIHNNRKRRRDSDGVDGFEAEGKKDKKDYDNF”: the “soluble on expression in E. coli” value was “not soluble”.
In the case of “MGSDKIHHHHHHMKEHEVVGIDRTPCSTADVVGDIRDTALLAEALEGVEVIIHTAALHAPHVGLVPGDEFEEINIKATEQLALMGVKKGIKHFVFTSTTALYGFASTPAGRAGWVDETVMPRPKTIYHHSKIKAEQLLENISSSFDLPVTVLQMSRCFPEPVNLMAVYRLTRGIDARDVARAHACAVERRLSGFRRYIISGKTPFSKACCERLYRDANDVIREAIPGLAESFAVRGWSMPQSLDRVYDSSLAQHELGWQPKYGYESVLSLLDNESAEVLPMKSQS” it was “not soluble”; in that of “MSLGARELHAHLKGGAATVCRCWAVTRRDGTVFGFTDHDRDLTFEGRLFRAETGLTSSALQQTTGLSVDNAETVGALSHVSVTEADLLAGRFDGAEVLAWLVNWADVSERLLQFRGTLGEITHSGGRFRAELRGLTEALNQPQGRVYQRSCQAVLGDRACGFDLSAEEFATERAVETVVGRQSFSFEGLHSFPDRWFEQGRLVVMTGEAAGAMGVIKSDRRRGEVRTVELWEALGPQITVGDRVRLEAGCDRMAETCRLKFNNLRNFRGFPHLSGEDWLSAYPAATGTHDGGSLWEEGHHHHHH”, “soluble”; in that of “SLPSVLDTLAAHSDNPSSFLALNSGNAYFHDGGFDGACAYRTSGRYVLQFGGPFTAPEHRARLLDAFAAHAGRRLVAVQLQRADAELYAAHGFTVNQLGASYAVDLSRFTLRGSRFVRLRNKISRARRAGLEVAEVMAGDDCAELDRIDQCWLRDKGRHVKELRFLVGQRNGSLQRHRRLFVGRIDGETAGYINYSPVYGSRSGWLHDLSRRRPDAPPGVMEALNATVMERLTAEGAGWLHFGFTPFTGLDPEHELPGASRMFTRFARLLAERGDVIYPAASQLEYKQKWAPHVVLPEYIAFRGRPRPGAVWQLLRATNAL”, “soluble”.
In the case of “AIAPTGEDNIVVPPAFDGESVSKNKEIYVTFGVDVDAVAGWLGSYGGEDSPFDISRGICAAEVGVPRLLELFRRFDLKTTWFLPGHSVESFPLQMRQVVAAGHEVGAHGYSHENPVRMTPKQEEDVLALSVQILENLTGKKPKGYVAPWWELSAATPELLLRYGFKYDHSQGHHDFQPYYARTAEKWTNIDYSKPARDWMKPLDRGQSVDLVEIPANWYVDDLPPMMFIKSAPNSHGFMNPRDIEDLWRDQFEWVYREYNFAVFPITIHPDVSGRPQVLLMLERFISYIRRFPGVHWTTMEEVAQIFRNKQPFLNA” it was “soluble”.
With “MQLFDLPLDQLQTYKPEKTAPKDFSEFWKLSLEELAKVQAEPDLQPVDYPADGVKVYRLTYKSFGNARITGWYAVPDKEGPHPAIVKYHGYNASYDGEIHEMVNWALHGYATFGMLVRGQQSSEDTSISPHGHALGWMTKGILDKDTYYYRGVYLDAVRALEVISSFDEVDETRIGVTGGSQGGGLTIAAAALSDIPKAAVADYPYLSNFERAIDVALEEPYLEINSFFRRNGSPETEVQAMKTLSYFDIMNLAYRVKVPVLMSIGLIDKVTPPSTVFAAYNHLETKKELKVYRYFGHEYIPAFQTEKLAFFKQHLKG” the entry was “soluble”.
As for “MSLESMLSHPPIPIADMAEHTERLKANDSLKLSQEYESIDPGQQFTWEHSNLEVNKPKNRYANVIAYDHSRVILQPIEGIMGSDYINANYVDGYRRQNAYIATQGPLPETFGDFWRMVWEQRSATIVMMTRLEEKSRIKCDQYWPNRGTETYGFIQVTLLDTIELATFCVRTFSLHKNGSSEKREVRQFQFTAWPDHGVPEYPTPFLAFLRRVKTCNPPDAGPIVVHCSAGVGRTGCFIVIDAMLERIKPEKTVDVYGHVTLMRSQRNYMVQTEDQYSFIHEALLEAVGCGNTEVPARSLYAYIQKLAQVEPGEHVTGMELEFKRLANSKAHTSRFISANLPCNKFKNRLVNIMPYESTRVCLQPIRGVEGSDYINASFIDGYRQQKAYIATQGPLAETTEDFWRMLWENNSTIVVMLTKLREMGREKCHQYWPAERSARYQYFVVDPMAEYNMPQYILREFKVTDARDGQSRTVRQFQFTDWPEQGVPKSGEGFIDFIGQVHKTKEQFGQDGPISVHCSAGVGRTGVFITLSIVLERMRYEGVVDIFQTVKMLRTQRPAMVQTEDEYQFCYQAALEYLGSFDHYATEGHHHHHH”, the “soluble on expression in E. coli” value was “soluble”.
For the sequence “MSLSNISLTTLGGVRENGKNMYIAEIGESIFVLNVGLKYPENEQLGVDVVIPNMDYLFENSDRIAGVFLTHGHADAIGALPYLLAEAKVPVFGSELTIELAKLFVKGNDAVKKFNDFHVIDENTEIDFGGTVVSFFPTTYSVPESLGIVLKTSEGSIVYTGDFKFDQTASESYATDFARLAEIGRDGVLALLSDSANADSNIQVASESEVRDEITQTIADWEGRIIVAAVSSNLSRIQQIFDAADKTGRRIVLTGFDIENIVRTAIRLKKLSLANEILLIKPKDMSRFEDHELIILETGRMGEPINGLRKMSIGRHRYVEIKDGDLVYIATAPSIAKEAFVARVENMIYQAGGVVKLITQSLHVSGHGNVRDLQLMINLLQPKYLFPVQGEYRELDAHAKAAMAVGMLPERIFIPKKGTTMAYENGDFVPAGSVSAGDILIDGNAIGDVGNVVLRDRKVLSEDGIFIVAITVNRREKKIVARARVHTRGFVYLKKSRDILRESSELINQTVEEYLQGDDFDWADLKGKVRDNLTKYLFDQTKRRPAILPVVMEAEGHHHHHH”, the “soluble on expression in E. coli” value was “not soluble”.
Regarding “MGANGASGDHKQLKEIRIGIQQSLSPLLIAKEKGWFEDAFEKEGIKVKWVEFQSGPPQFEGLAADKLDFSQVGNSPVIAGQAAGIDFKEIGLSQDGLKANGILVNQNSGIQDVKGLKGKKIAVAKGSSGFDFLYKALDQVGLSANDVTIIQLQPDEAASAFENGSVDAWSIWEPYLSLETMKHGAKILVNGESTDLYSPGFTLVRTKFSEEHPDEVVRFLKVFNKAVVWQKEHLDEAADLYSDIKDLDKKVVENVLKNTEPLNEIISDDIVKAQQETADFQFRTKAIDKKIDVKDVVDNTFIKKALEEHSSGGDQLEHHHHHH”, the “soluble on expression in E. coli” value is on record as “soluble”.
With “MCITFIKTAKSSLDKYKLILLNNRDEQLLRPTKEMHWHDGILSGVDKQENARGTWLGLNENGRIGMMLSITQTQESKNLHAPSRGGIVNEFLNANDTSKMIESLKKCASKYNGFQLVAVEKNSTGLYEVRTLANQQVDEIEVCQLKDEYHVVSNSPPTKPYQKAVQGKKLLREHLENSDQFSVDQIFEKLLSIAKNTTQWYPDAQLQYQTQNVEEYNRPLSAIFIKYPEGTRMYGTRCHTLITVDQKDKINILERRLLPEQSTWHDARFEFVLNGS” the entry was “not soluble”.
